This is an account of results in PMC2667179.

A word on the stoichiometry N: it is a count of units in the complex or per binding partner.

In the assay the target is sucrose synthase (Nicotiana tabacum (endogenous in BY-2 cells)). Kind of assay: native gel or EMSA; two-dimensional blue native PAGE (4-14.5% gradient, 4°C) then SDS-PAGE of BY-2 plasma membrane proteins solubilized with 1% n-octyl-beta-D-glucopyranoside (750 mM amino caproic acid, 100 mM BisTris pH 7.0); subunits detected by immunoblotting on separate blots; association judged by comigration.

Consider sucrose synthase (enzyme), for which the stoichiometry N stood at 4.
